Source: patent US20250368745A1 (published 2025)
Where a chain is given by its changes, count along the chain named.

B1: SA32a (antibody, human IgG1, V domains shown)
VH: EVQLQQSGPELVKTGASVKISCKASGYSFTGYYMHWVKQSHGKSLEWIGYISCYNGATSYNQKFKGKATFTVDTSSSTAYMQFNSLTSEDSAVYYCAITLHYAMDYWGQGTSVAS
VL: DIVMTQAAFSNPVTLGTSASISCRSSKSLLHSNGITYLYWYLQKPGQSPQLLIYQMSNLASGVPDRFSSSGSGTDFTLRISRVEAEDVGVYYCAQNLELPWTFGGGTKLEIK
notes: murine variable regions on human IgG1 kappa constant regions
B2: SA34a (antibody, human IgG1, V domains shown)
VH: QVQLQQSGAELARPGASVKLSCKASGYTFTDYYINWVKQRTGQGLEWIGEIYPGSGNTYYNEKFKGKATLTADKSSSTAYMQLSSLTSEDSAVYFCARGYYGRFAYWGQGTLVTVSA
VL: B1 VL with A94D, W101F, G105S
notes: as for B1
B3: SA33a (antibody, human IgG1, V domains shown)
VH: QVQLQQSGAELVRPGVSVKISCKGSGYTFTDYAMHWVKQSHAKSLEWIGVISTYYGDASYNQKFKGKATMTVDKSSSTAYMELARLTSEDSAIYYCARERDYYGSRLFDYWGQGTTLTVSS
VL: EIVLTQSPTTMAASPGEKITITCSANSSISSNYLHWYQQKPGFSPKLLIYGTSNLASGVPARFSGSGSGTSYSLTIGTMEAEDVATYYCQQGSSIPYTFGGGTKLEIK
notes: as for B1
B4: SA302a (antibody, human IgG1, V domains shown)
VH: QVQLQESGPGLVKPSQTLSLTCTVSGYSITSDYNAHWIRQPPGKGLEWIGYIHYSGSTNYNPSLKSRVTISRDTSKNQFSLKLSSVTAADTAVYYCARNYGSIYVNYFDYWGQGTLVTVSS
VL: EIVLTQSPATLSLSPGERATLSCSASSSVSYMYWYQQKPGQAPRPLIYRTSNLASGIPARFSGSGSGTDFTLTISSLEPEDFAVYYCQQYHSYPTFGGGTKVEIK
notes: humanized; human IgG1 (suffix a), kappa
B5: SA337a (antibody, human IgG1, V domains shown)
VH: B4 VH with S31Q, S57Q
VL: B4 VL with Q89L
notes: as for B4
B6: SA322a (antibody, human IgG1, V domains shown)
VH: B4 VH with S31Q, S57Q
VL: B4 VL
notes: as for B4
B7: SA330a (antibody, human IgG1, V domains shown)
VH: B4 VH with S57Q, N59Y, Y100F
VL: B4 VL
notes: as for B4
B8: SA319a (antibody, human IgG1, V domains shown)
VH: B4 VH with S31Q, S57Q, Y100F
VL: B4 VL
notes: as for B4
B9: SA310a (antibody, human IgG1, V domains shown)
VH: B4 VH with N59M
VL: B4 VL
notes: as for B4
B10: SA303a (antibody, human IgG1, V domains shown)
VH: B4 VH with Y100F
VL: B4 VL
notes: as for B4
B11: SA325a (antibody, human IgG1, V domains shown)
VH: B4 VH
VL: B4 VL with Q89E
notes: as for B4
B12: SA321a (antibody, human IgG1, V domains shown)
VH: B4 VH with S31Q, S57Q, N59L, Y100F
VL: B4 VL
notes: as for B4
B13: SA327a (antibody, human IgG1, V domains shown)
VH: B4 VH
VL: B4 VL with S92G
notes: as for B4
B14: SA329a (antibody, human IgG1, V domains shown)
VH: B4 VH
VL: B4 VL with T95K
notes: as for B4
B15: SA309a (antibody, human IgG1, V domains shown)
VH: B4 VH with S57Q
VL: B4 VL
notes: as for B4
B16: SA338a (antibody, human IgG1, V domains shown)
VH: B4 VH with S31Q, S57Q, N59Y, Y100F
VL: B4 VL with Q89L
notes: as for B4
B17: SA326a (antibody, human IgG1, V domains shown)
VH: B4 VH
VL: B4 VL with Q89L
notes: as for B4
B18: SA307a (antibody, human IgG1, V domains shown)
VH: B4 VH with S31Q
VL: B4 VL
notes: as for B4
B19: SA320a (antibody, human IgG1, V domains shown)
VH: B4 VH with S31Q, S57Q, N59Y, Y100F
VL: B4 VL
notes: as for B4
B20: SA328a (antibody, human IgG1, V domains shown)
VH: B4 VH
VL: B4 VL with P94V
notes: as for B4
B21: SA340a (antibody, human IgG1, V domains shown)
VH: B4 VH with S31Q, S57Q, N59Y, Y100F
VL: B4 VL with T95K
notes: as for B4

What follows are binders tested against hypo-IL-18 (IL-18 tethered to IL-18BP by a flexible linker with TEV site, 6xHis) (human) (assay: BLI).
hypo-IL-18 (IL-18 tethered to IL-18BP by a flexible linker with TEV site, 6xHis) (human), sequence (chain, as listed by the source limits assumed): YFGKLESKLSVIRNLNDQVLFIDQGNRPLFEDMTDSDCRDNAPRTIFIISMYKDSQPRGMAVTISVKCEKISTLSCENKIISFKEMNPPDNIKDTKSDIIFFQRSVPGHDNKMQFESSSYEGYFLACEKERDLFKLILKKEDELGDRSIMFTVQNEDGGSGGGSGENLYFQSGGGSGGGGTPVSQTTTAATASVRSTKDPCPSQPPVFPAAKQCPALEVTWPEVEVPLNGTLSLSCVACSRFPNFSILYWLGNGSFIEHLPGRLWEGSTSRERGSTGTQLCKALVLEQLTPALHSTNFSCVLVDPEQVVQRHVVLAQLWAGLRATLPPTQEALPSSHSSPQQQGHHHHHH
B1: no binding.
B2: no binding.
B3: no binding.

Each binder was assayed against T1, human IL-18BP (interleukin-18 binding protein, isoform A) (human, UniProt O95998 31-194) (assay: cell-based or functional assay).
T1 sequence: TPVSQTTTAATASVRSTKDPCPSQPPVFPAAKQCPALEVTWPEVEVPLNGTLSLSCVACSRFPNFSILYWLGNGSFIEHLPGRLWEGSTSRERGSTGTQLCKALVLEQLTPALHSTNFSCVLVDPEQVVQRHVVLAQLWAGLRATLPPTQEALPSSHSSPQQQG
In the case of B1, the “EC50 (nM), HEK293 IL-18 Reporter Assay (SEAP)” value (“EC50 (nM) … (SEAP)” for short) is reported as 6.82 nM.
For B2, the “EC50 (nM) … (SEAP)” value was 5.02 nM.
For B3, the “EC50 (nM) … (SEAP)” value was 0.36 nM.

Target: T1, human IL-18BP (interleukin-18 binding …)
Test: cell-based or functional assay
Remark: another data set of the same source
For B1, the “EC50 (nM), KG-1 Assay (IFNγ)” value was 109 nM.
In the case of B2, the “EC50 (nM), KG-1 Assay (IFNγ)” value is reported as 51 nM.
In the case of B3, the “EC50 (nM), KG-1 Assay (IFNγ)” value is reported as 129 nM.

Target: T1, human IL-18BP (interleukin-18 binding …)
Test: cell-based or functional assay
Remark: another data set of the same source
With B4 the “EC50 in PBMC Assay 1 (endogenous IL-18BP), IFNγ” value was 15000 pM and the “EC50 in PBMC Assay 2 (precomplexed IL-18BP), IFNγ” value was 2150 pM.
B5 was tested, and the “EC50 in PBMC Assay 1 (endogenous IL-18BP), IFNγ” value was 1000 pM and the “EC50 in PBMC Assay 2 (precomplexed IL-18BP), IFNγ” value was 580 pM.
In the case of B6, the “EC50 in PBMC Assay 1 (endogenous IL-18BP), IFNγ” value is reported as 800 pM and the “EC50 in PBMC Assay 2 (precomplexed IL-18BP), IFNγ” value is reported as 530 pM.
B7 was tested, and the “EC50 in PBMC Assay 1 (endogenous IL-18BP), IFNγ” value was 21000 pM and the “EC50 in PBMC Assay 2 (precomplexed IL-18BP), IFNγ” value was 900 pM.
In the case of B8, the “EC50 in PBMC Assay 1 (endogenous IL-18BP), IFNγ” value is reported as 200 pM and the “EC50 in PBMC Assay 2 (precomplexed IL-18BP), IFNγ” value is reported as 70 pM.
With B9 the “EC50 in PBMC Assay 1 (endogenous IL-18BP), IFNγ” value was 1900 pM and the “EC50 in PBMC Assay 2 (precomplexed IL-18BP), IFNγ” value was 940 pM.
For B10, the “EC50 in PBMC Assay 1 (endogenous IL-18BP), IFNγ” value was 1600 pM and the “EC50 in PBMC Assay 2 (precomplexed IL-18BP), IFNγ” value was 2750 pM.
B11 was tested, and the “EC50 in PBMC Assay 1 (endogenous IL-18BP), IFNγ” value was 6100 pM and the “EC50 in PBMC Assay 2 (precomplexed IL-18BP), IFNγ” value was 5000 pM.
B12 was tested, and the “EC50 in PBMC Assay 1 (endogenous IL-18BP), IFNγ” value was 900 pM and the “EC50 in PBMC Assay 2 (precomplexed IL-18BP), IFNγ” value was 850 pM.
In the case of B13, the “EC50 in PBMC Assay 1 (endogenous IL-18BP), IFNγ” value is reported as 7100 pM and the “EC50 in PBMC Assay 2 (precomplexed IL-18BP), IFNγ” value is reported as 4000 pM.
With B14 the “EC50 in PBMC Assay 1 (endogenous IL-18BP), IFNγ” value was 5300 pM and the “EC50 in PBMC Assay 2 (precomplexed IL-18BP), IFNγ” value was 7400 pM.
With B15 the “EC50 in PBMC Assay 1 (endogenous IL-18BP), IFNγ” value was 2800 pM and the “EC50 in PBMC Assay 2 (precomplexed IL-18BP), IFNγ” value was 620 pM.
B16 was tested, and the “EC50 in PBMC Assay 1 (endogenous IL-18BP), IFNγ” value was 500 pM and the “EC50 in PBMC Assay 2 (precomplexed IL-18BP), IFNγ” value was 330 pM.
In the case of B17, the “EC50 in PBMC Assay 1 (endogenous IL-18BP), IFNγ” value is reported as 7500 pM and the “EC50 in PBMC Assay 2 (precomplexed IL-18BP), IFNγ” value is reported as 1200 pM.
B18 was tested, and the “EC50 in PBMC Assay 1 (endogenous IL-18BP), IFNγ” value was 1600 pM and the “EC50 in PBMC Assay 2 (precomplexed IL-18BP), IFNγ” value was 1470 pM.
In the case of B19, the “EC50 in PBMC Assay 1 (endogenous IL-18BP), IFNγ” value is reported as 300 pM and the “EC50 in PBMC Assay 2 (precomplexed IL-18BP), IFNγ” value is reported as 250 pM.
With B20 the “EC50 in PBMC Assay 1 (endogenous IL-18BP), IFNγ” value was 2000 pM and the “EC50 in PBMC Assay 2 (precomplexed IL-18BP), IFNγ” value was 5800 pM.

Each binder was assayed against T1, human IL-18BP (interleukin-18 binding …) (assay: BLI, affinity column of Table E8).
With B4 the Kd was 345 pM.
B5 showed a Kd of 47 pM.
B6 gave a Kd of 54 pM.
With B7 the Kd was 76 pM.
With B8 the Kd was 254 pM.
Binder B9 has a Kd of 175 pM.
Binder B10 has a Kd of 182 pM.
B11 showed a Kd of 468 pM.
In the case of B12, the Kd is reported as 136 pM.
B13 showed a Kd of 249 pM.
Work on B14 yielded a Kd of 107 pM.
In the case of B15, the Kd is reported as 61 pM.
In the case of B16, the Kd is reported as 32 pM.
B17 was tested, and the Kd was 128 pM.
In the case of B18, the Kd is reported as 54 pM.
B19 gave a Kd of 52 pM.
For B20, the Kd was 133 pM.

What follows are binders tested against T1, human IL-18BP (interleukin-18 binding …) (assay: BLI (Octet), mAb on AHC biosensor).
B1 showed a Kd of 17000 pM.
Binder B2 has a Kd of 18000 pM.
Work on B3 yielded a Kd of 3000 pM.

Target: T2, cynomolgus IL-18BP (cynomolgus monkey)
T2 construct: Generated in-house; also called cyIL-18BP; cyno IL-18BP
T2 chain: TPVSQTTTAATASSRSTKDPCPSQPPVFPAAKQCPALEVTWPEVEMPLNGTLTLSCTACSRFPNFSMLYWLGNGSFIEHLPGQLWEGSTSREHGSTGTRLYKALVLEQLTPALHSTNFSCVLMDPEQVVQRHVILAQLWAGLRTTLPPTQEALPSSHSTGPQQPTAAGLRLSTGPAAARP
Test: BLI (Octet), mAb on AHC biosensor
B1 was tested, and the Kd was 19000 pM.
Binder B2 has a Kd of 12000 pM.
B3 gave a Kd of 16000 pM.

Target: T1, human IL-18BP (interleukin-18 binding …)
Test: BLI (Octet), mAb on AHC biosensor
Remark: another data set of the same source
For B4, the Kd was 345 pM.
Binder B5 has a Kd of 47 pM.
Work on B6 yielded a Kd of 54 pM.
B7 showed a Kd of 76 pM.
In the case of B8, the Kd is reported as 254 pM.
B9 showed a Kd of 175 pM.
For B10, the Kd was 182 pM.
B11 showed a Kd of 468 pM.
B12 showed a Kd of 136 pM.
Work on B13 yielded a Kd of 249 pM.
Work on B14 yielded a Kd of 107 pM.
B15 gave a Kd of 61 pM.
For B16, the Kd was 32 pM.
B21 gave a Kd of 27 pM.
B17 was tested, and the Kd was 128 pM.
Work on B18 yielded a Kd of 54 pM.
With B19 the Kd was 52 pM.
B20 showed a Kd of 133 pM.

Target: T2, cynomolgus IL-18BP
Test: BLI (Octet), mAb on AHC biosensor
Remark: another data set of the same source
Work on B4 yielded a Kd of 156 pM.
B5 was tested, and the Kd was 42 pM.
Work on B6 yielded a Kd of 20 pM.
With B9 the Kd was 28 pM.
Binder B10 has a Kd of 77 pM.
B15 gave a Kd of 24 pM.
With B16 the Kd was 24 pM.
B21 gave a Kd of 36 pM.
Binder B18 has a Kd of 27 pM.
Binder B19 has a Kd of 20 pM.

Target: T2, cynomolgus IL-18BP
Test: ratio of BLI KDs, cyno against human IL-18BP
B4 was tested, and the Cyno/human was 0.45 ratio.
B5 showed a Cyno/human of 0.89 ratio.
In the case of B6, the Cyno/human is reported as 0.37 ratio.
B9 was tested, and the Cyno/human was 0.16 ratio.
For B10, the Cyno/human was 0.42 ratio.
With B15 the Cyno/human was 0.39 ratio.
B16 gave a Cyno/human of 0.67 ratio.
B21 was tested, and the Cyno/human was 1.33 ratio.
B18 gave a Cyno/human of 0.5 ratio.
B19 gave a Cyno/human of 0.38 ratio.
